How the values were obtained:
[1] = molecular target: T1, Venus-tagged Gβ3γ9, P16520;O14610; assay: BRET-based Gβ3γ9 displacement assay (competition with GαoG92-NLuc); conditions: chain shown with the change; n = 3; parent: est. 100; read off a plot
T1 chain 1: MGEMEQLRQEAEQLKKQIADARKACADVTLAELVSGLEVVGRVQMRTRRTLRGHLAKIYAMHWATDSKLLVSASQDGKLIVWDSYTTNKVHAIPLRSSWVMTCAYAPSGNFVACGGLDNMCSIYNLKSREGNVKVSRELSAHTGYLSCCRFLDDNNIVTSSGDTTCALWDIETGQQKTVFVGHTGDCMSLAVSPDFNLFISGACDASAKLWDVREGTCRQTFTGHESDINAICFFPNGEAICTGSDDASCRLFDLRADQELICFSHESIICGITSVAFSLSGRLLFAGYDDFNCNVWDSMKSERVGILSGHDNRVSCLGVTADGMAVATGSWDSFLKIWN
T1 chain 2: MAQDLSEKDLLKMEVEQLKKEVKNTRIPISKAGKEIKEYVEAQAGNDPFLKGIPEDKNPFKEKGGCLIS

[2] = molecular target: GFP-Gβ1γ3 (GFP-tagged Gβ1 and GFP-tagged Gγ3), P62873;P63215; assay: co-immunoprecipitation (GFP nanobody IP, Western blot quantification); conditions: chain shown with the change; HEK293T cells; n = 4; parent: est. 1.0; read off a plot
[3] = molecular target: T2, GFP-Ric8A, Q9NPQ8; assay: as above; conditions: chain shown with the change; HEK293T cells; n = 4; parent: est. 1.0; read off a plot
T2 chain: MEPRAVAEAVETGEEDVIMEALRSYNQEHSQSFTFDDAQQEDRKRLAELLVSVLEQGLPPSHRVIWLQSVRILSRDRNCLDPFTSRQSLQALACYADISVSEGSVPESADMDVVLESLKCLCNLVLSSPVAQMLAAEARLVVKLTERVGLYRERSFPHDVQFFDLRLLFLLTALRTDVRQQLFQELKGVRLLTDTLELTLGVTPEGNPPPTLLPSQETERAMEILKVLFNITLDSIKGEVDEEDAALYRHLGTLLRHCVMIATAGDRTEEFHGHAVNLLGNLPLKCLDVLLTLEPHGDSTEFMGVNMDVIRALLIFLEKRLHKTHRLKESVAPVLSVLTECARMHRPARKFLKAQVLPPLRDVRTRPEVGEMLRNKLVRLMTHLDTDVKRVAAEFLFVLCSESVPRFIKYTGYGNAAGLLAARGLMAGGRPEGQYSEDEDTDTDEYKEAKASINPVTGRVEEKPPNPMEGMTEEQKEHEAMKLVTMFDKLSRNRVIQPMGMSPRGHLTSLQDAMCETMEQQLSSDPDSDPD

GFP-Gβ1γ3 (GFP-tagged Gβ1 and GFP-tagged Gγ3), P62873;P63215, sequence (chain, as listed by the source, chain 1 of 2): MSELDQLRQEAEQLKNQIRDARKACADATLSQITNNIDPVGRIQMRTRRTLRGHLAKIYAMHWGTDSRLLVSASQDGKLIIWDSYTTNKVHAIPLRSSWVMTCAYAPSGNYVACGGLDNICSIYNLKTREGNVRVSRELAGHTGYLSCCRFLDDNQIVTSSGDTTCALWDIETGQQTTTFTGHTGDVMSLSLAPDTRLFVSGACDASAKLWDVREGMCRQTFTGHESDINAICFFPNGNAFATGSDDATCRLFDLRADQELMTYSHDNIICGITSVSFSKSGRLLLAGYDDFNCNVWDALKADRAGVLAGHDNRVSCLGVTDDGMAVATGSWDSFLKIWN
GFP-Gβ1γ3 (GFP-tagged Gβ1 and GFP-tagged Gγ3), P62873;P63215, sequence (chain, as listed by the source, chain 2 of 2): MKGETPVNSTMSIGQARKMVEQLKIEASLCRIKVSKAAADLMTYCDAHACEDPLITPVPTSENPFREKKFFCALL

percent of parent (% of Gαo wild-type) [1]: 30
ratio to parent (folds over Gαo wild-type) [2]: 0.29
ratio to parent (folds over Gαo wild-type) [3]: 6.2
B1: Gαo wild-type (non-tagged), P09471-1 L39_G40insV (protein)
chain: MGCTLSAEERAALERSKAIEKNLKEDGISAAKDVKLLLLVGAGESGKSTIVKQMKIIHEDGFSGEDVKQYKPVVYSNTIQSLAAIVRAMDTLGIEYGDKERKADAKMVCDVVSRMEDTEPFSAELLSAMMRLWGDSGIQECFNRSREYQLNDSAKYYLDSLDRIGAADYQPTEQDILRTRVKTTGIVETHFTFKNLHFRLFDVGGQRSERKKWIHCFEDVTAIIFCVALSGYDQVLHEDETTNRMHESLMLFDSICNNKFFIDTSIILFLNKKDLFGEKIKKSPLTICFPEYTGPNTYEDAAAYIQAQFESKNRSPNKEIYCHMTCATDTNNIQVVFDAVTDIIIANNLRGCGLY

Reference: publication PMC12781765
